Measured values from patent publication US20030232387A1.

Target: mutant αEβ7 integrin, αE ΔE163-E180, on transfected K562 cells (human) (UniProt P38570)
Experiment: flow cytometry on K562 cells expressing mutant αEβ7

Chain of mutant αEβ7 integrin, αE ΔE163-E180, on transfected K562 cells (human) (P38570 other isoform, or with tags, fused parts or gaps mutant, chain 1 of 2): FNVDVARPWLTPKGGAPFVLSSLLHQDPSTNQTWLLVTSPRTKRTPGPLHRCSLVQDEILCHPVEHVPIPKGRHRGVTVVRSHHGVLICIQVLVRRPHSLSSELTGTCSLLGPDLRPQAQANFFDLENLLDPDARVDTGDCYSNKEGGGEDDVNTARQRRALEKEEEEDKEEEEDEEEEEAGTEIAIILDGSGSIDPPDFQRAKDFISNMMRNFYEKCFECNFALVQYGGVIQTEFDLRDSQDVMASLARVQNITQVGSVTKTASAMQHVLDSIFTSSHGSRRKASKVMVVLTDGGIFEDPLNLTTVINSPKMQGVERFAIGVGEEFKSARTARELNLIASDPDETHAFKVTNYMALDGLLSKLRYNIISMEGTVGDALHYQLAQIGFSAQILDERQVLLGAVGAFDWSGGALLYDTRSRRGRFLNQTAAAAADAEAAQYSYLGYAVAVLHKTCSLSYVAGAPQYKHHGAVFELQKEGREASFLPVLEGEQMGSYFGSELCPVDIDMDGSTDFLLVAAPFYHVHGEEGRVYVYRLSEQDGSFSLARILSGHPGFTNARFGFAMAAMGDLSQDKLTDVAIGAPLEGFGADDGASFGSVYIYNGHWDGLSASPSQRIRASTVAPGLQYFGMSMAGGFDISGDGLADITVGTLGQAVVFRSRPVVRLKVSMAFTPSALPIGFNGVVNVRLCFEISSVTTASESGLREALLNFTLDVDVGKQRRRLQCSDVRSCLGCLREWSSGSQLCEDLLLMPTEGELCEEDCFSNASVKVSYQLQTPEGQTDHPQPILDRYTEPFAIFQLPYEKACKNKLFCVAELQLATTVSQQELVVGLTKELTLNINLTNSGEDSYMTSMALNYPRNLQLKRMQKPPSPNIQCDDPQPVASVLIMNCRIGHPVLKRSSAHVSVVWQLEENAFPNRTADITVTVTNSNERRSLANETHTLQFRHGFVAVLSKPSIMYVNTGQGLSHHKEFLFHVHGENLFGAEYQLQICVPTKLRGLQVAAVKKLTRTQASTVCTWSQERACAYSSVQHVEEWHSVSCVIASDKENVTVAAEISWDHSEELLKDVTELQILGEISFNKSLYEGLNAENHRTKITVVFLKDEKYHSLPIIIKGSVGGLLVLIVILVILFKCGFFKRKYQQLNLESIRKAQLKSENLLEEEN
Chain of mutant αEβ7 integrin, αE ΔE163-E180, on transfected K562 cells (human) (chain, as listed by the source mutant, chain 2 of 2): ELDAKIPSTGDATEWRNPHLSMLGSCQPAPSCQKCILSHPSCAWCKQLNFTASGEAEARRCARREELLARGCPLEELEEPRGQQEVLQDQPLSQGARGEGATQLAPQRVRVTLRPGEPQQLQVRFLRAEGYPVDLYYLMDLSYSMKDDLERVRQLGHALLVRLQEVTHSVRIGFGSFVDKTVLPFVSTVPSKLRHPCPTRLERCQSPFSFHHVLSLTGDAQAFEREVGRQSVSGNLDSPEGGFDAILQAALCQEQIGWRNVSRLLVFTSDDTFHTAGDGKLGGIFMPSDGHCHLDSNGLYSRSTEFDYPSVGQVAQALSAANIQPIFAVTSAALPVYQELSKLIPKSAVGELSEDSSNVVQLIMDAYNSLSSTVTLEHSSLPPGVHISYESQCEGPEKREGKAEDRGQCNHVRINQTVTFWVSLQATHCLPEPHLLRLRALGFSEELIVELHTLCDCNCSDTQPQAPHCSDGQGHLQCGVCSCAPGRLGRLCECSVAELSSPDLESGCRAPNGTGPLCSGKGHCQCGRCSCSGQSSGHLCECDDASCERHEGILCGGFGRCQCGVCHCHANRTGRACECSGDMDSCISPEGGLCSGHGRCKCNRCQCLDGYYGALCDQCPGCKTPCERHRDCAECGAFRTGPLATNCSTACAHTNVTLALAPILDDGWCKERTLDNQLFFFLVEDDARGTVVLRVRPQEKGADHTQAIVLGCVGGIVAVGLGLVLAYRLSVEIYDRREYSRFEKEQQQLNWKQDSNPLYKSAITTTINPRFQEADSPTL

% Control Staining: 25%
B1: mAb 5E4 (antibody, V domains shown)
VH: EVQLVESGGGLVQPGGSLRLSCAASGFTFSNFWMSWVRQAPGKGLEWMANIKQDGSEKYYVDSVKGRFTISRDNAKSSLFLQMNSLRVDDTAVYFCAGDYYDSGSFYWGQGTLVTVSS
VL: EIVLTQSPATLSLSPGERATLSCRASQSVRSNLAWYQQKPGQAPRLLIYDASNRAIGIPARFSGSGSGTDFTLTISSLEPEDFVVYYCQQRSNWPPWTFGQGTKVEIK
